Laboratory results: PMC7029000
Where “and” joins values, the source holds several entries; their conditions need not be identical. Identical values can stand only once.

Columns and labels:
[1] = target: PKM2 (mouse (endogenous in primary astrocytes and striatum)) (UniProt P52480); test: native gel or EMSA; blue native PAGE of striatum of Drd2 flox/flox and Drd2 hGFAPcKO mice after 5 mg/kg quinpirole or pyridoxine for 7 days, immunoblot for PKM2; tetramer to dimers
[2] = target: PKM2 (mouse (endogenous in primary astrocytes and striatum)) (UniProt P52480); test: native gel or EMSA; blue native PAGE (8%, 4 °C) of digitonin lysates of primary astrocytes, immunoblot for PKM2; tetramer to dimers; cells treated with quinpirole, DASA-58, PTX, β-arrestin siRNA, pyridoxine
[3] = target: Purified recombinant PKM2 (UniProt P52480); test: native gel or EMSA; blue native PAGE of purified recombinant PKM2 mixed with natural products (vindoline, pyridoxine and others); tetramer to dimers

PKM2, P52480 1-531 (enzyme; other documents disagree on this pair), sequence (P52480 whole entry): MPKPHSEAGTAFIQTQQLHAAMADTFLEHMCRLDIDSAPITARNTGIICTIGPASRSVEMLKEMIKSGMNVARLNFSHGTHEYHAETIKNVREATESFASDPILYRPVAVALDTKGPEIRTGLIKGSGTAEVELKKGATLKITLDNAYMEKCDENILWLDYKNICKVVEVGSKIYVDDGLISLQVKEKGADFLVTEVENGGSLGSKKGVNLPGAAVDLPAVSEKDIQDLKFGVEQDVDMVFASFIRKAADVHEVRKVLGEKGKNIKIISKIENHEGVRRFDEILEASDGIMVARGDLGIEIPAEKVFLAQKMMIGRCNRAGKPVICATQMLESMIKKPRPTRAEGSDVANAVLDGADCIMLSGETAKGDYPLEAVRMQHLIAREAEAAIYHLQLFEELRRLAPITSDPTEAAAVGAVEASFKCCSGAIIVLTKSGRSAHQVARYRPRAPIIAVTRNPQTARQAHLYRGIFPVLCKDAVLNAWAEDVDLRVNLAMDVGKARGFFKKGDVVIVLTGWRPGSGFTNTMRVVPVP
Purified recombinant PKM2, P52480 1-531 (enzyme; other documents disagree on this pair), sequence (P52480 whole entry): as above

stoichiometry N [1] | stoichiometry N [2] | stoichiometry N [3] | Substance
2 and 4 | 4 and 2 |  | PKM2, P52480 1-531 (enzyme; other documents disagree on this pair)
 |  | 2 and 4 | Purified recombinant PKM2, P52480 1-531 (enzyme; other documents disagree on this pair)
